Reference: US20250152627A1, “COMPOSITIONS AND METHODS FOR ENHANCING IMMUNE CELL FUNCTION USING MODIFIED CELLS WITH GLYCOCALYX EDITING ENZYMES” (Cornell University, priority 2021, published 2025)

Experiments:
[1] = test system: Muc1-GFP expressing 1E7 cells; assay: Removal of cell-surface mucin from 1E7 cells (confocal imaging, GFP nanobody); type: cell-based; details: 100 nM enzyme
Description: FIG. 11. StcE mucinase effectively remove cell-surface mucin on 1E7 clone and NK cell. (A) Representative confocal images of Muc1-GFP expressing 1E7 cells with and without treatment with 100 nM StcE, StcE ΔX409, or StcE-EE Zip; Alexa Fluor 647 conjugated to GFP nanobody is used to probe cell-surface Muc1-GFP constructs. (Scale bar, 10 μm). (B) Quantification of mean fluorescence intensity of Muc1-GFP and cell-surface Muc1-GFP probed with GFP nanobody in 1E7 cells treated with the indicated concentration of StcE mucinase; results are shown for induction of Muc1-GFP at 100 ng/ml and 1000 ng/ml doxycycline. (C) Cytotoxicity of NK-92 cells against 1E7 cells treated with control buffer, 100 nM StcE mucinase, or 5,000 U/mL PNGase F for 1 hour; Muc1-GFP induction is at the indicated doxycycline concentration (1,100, and 1,000 ng/ml); NK cell to target cell ratio is 5:1. (D) Flow cytometry analysis of mucin levels on NK-92 cells following incubation with control buffer or 100 nM recombinant StcE or StcE ΔX409; StcE surface level after incubation probed with anti His-tag antibody and cell-surface mucin level probed with catalytically dead StcE E447D conjugated to Cy5. Statistical significance is given by ns—not significant, *P≤0.05, **P≤0.01, ***P≤0.001, ****P≤0.0001. Results are a representative dataset from 3 independent replicates. […]

NK-92 cell surface = assay: Flow cytometry of StcE surface level on NK-92 cells (anti His-tag); type: cell-based; details: after washing with buffer; no additional molecular tether
Description: Cells were plated, grown for 24 hours, and then induced with various concentrations of doxycycline for 24 hours. Adherent cells were detached by incubating with Accutase (Innovative Cell Technologies) at 37° C. for 10 minutes. GFP nanobody conjugated Alexa Fluor 647, Neutravidin conjugated DyLight 650, CF640R PNA, Alexa Fluor 647 HPA, and biotin MAL-II were diluted 1:200 in 0.5% BSA PBS and incubated with cells at 4° C. for 30 minutes for each stain. For analysis of Muc1 cell surface expression level, anti-Human Muc Clone HMPV was diluted 1:200 in 0.5% BSA PBS and incubated with cells at 4° C. (for 1 hour. Secondary labelling was with Alexa Fluor 647 conjugated goat anti-mouse, diluted 1:1000 in 0.5% BSA PBS and incubated with cells at 4° C. for 1 hour. For analysis of StcE mucinase binding to NK-92 cells, NK cells were incubated with StcE at 37° C. for 1 hour. Cells were thoroughly washed to remove StcE and coculture with target cells. Anti-6× His-tag antibody was diluted 1:100 in 0.5% BSA PBS and incubated with cells at 4° C. for 1 hour. Secondary labelling was with Alexa Fluor 647 goat anti-rabbit IgG, diluted 1:500 in 0.5% BSA PBS or FluoTag-X2 anti-AFLA conjugated with Alexa Fluor 647 was diluted 1:200 in 0.5% BSA PBS and incubated with cells at 4° C. for 1 hour. […]

B1: StcE-ΔX409: StcE with a deleted C-terminal X409 lectin domain; NK cells treated with it: StcE-ΔX409 NK (protein)
chain: ADNNSAIYFNTSQPINDLQGSLAAEVKFAQSQILPAHPKEGDSQPHLTSLRKSLLLVRPVKADDKTPVQVEARDDNNKILGTLTLYPPSSLPDTIYHLDGVPEGGIDFTPHNGTKKIINTVAEVNKLSDASGSSIHSHLTNNALVEIHTANGRWVRDIYLPQGPDLEGKMVRFVSSAGYSSTVFYGDRKVTLSVGNTLLFKYVNGQWFRSGELENNRITYAQHIWSAELPAHWIVPGLNLVIKQGNLSGRLNDIKIGAPGELLLHTIDIGMLTTPRDRFDFAKDKEAHREYFQTIPVSRMIVNNYAPLHLKEVMLPTGELLTDMDPGNGGWHSGTMRQRIGKELVSHGIDNANYGLNSTAGLGENSHPYVVAQLAAHNSRGNYANGIQVHGGSGGGGIVTLDSTLGNEFSHEVGHNYGLGHYVDGFKGSVHRSAENNNSTWGWDGDKKRFIPNFYPSQTNEKSCLNNQCQEPFDGHKFGFDAMAGGSPFSAANRFTMYTPNSSAIIQRFFENKAVFDSRSSTGFSKWNADTQEMEPYEHTIDRAEQITASVNELSESKMAELMAEYAVVKVHMWNGNWTRNIYIPTASADNRGSILTINHEAGYNSYLFINGDEKVVSQGYKKSFVSDGQFWKERDVVDTREARKPEQFGVPVTTLVGYYDPEGTLSSYIYPAMYGAYGFTYSDDSQNLSDNDCQLQVDTKEGQLRFRLANHRANNTVMNKFHINVPTESQPTQATLVCNNKILDTKSLTPAPEGLTYTVN
removal / cleavage of cell-surface mucin [1]: could actively digest Muc | binding and retention on the NK-92 cell surface (NK-92 cell surface): not retained
